Protein stability index data for 94 variants are collected here from the supplement of paper PMC10567573.

The chains are these.
B1: ETS1 (parent)
chain: FSEPSFITESYQTLHPISSEELLS
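Also: lentivirally expressed fusions sorted by FACS into six bins by GFP to DsRed ratio, PSI derived from sequencing read proportions per bin multiplied by bin number.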

In this series the parent is B1. The experiment in a line: protein stability index of a GFP-peptide fusion (GPS, HEK-293T) (PSI 1-6); higher = more stable. To be noted: c terminus: a fixed tail appended.
As to FSEPSFITESYQTLHPINSEELLS [S18N], the protein stability index was 2.04. The result for FSEPSFITESYQTLHPIWSEELLS [S18W] reads 1.38; that for FSEPSFITESYQTLHPIFSEELLS [S18F], 1.79; that for FSEPSFITESYQTLHPIHSEELLS [S18H], 2.35.

Regarding FSEPSFITESYQTLHPIISEELLS [S18I], the protein stability index stood at 1.83. With FSEPSFITESYQTLHPIGSEELLS [S18G], the protein stability index was found to be 1.8. With FSEPSFITESYQTLHPICSEELLS [S18C], the protein stability index came to 2.2. For the variant FSEPSFITESYQTLHPIYSEELLS [S18Y], the protein stability index came out at 2.24. The result for FSEPSFITESYQTLHPIDSEELLS [S18D] reads 2.33. As for FSEPSFITESYQTLHPIMSEELLS [S18M], the protein stability index turned out to be 2. For FSEPSFITESYQTLHPIRSEELLS [S18R] the value was 2.19. Regarding FSEPSFITESYQTLHPIKSEELLS [S18K], the protein stability index worked out at 1.49. For FSEPSFITESYQTLHPIQSEELLS [S18Q] the value was 2.3; for FSEPSFITESYQTLHPIASEELLS [S18A], 1.93. FSEPSFITESYQTLHPIPSEELLS [S18P]: the protein stability index amounted to 2.08. As for FSEPSFITESYQTLHPILSEELLS [S18L], the protein stability index came out at 1.99.

On to FSEPSFITESYQTLHPITSEELLS [S18T], for which the protein stability index is 1.97. FSEPSFITESYQTLHPIESEELLS [S18E]: the protein stability index worked out at 2.18. The result for FSEPSFITESYQTLHPIVSEELLS [S18V] reads 2.13. As to FSEPSFITESQQTLHPISSEELLS [Y11Q], the protein stability index is 2.57.

For the variant FSEPSFITESVQTLHPISSEELLS [Y11V], the protein stability index turned out to be 1.78. The result for FSEPSFITESAQTLHPISSEELLS [Y11A] reads 2.21. Consider FSEPSFITESGQTLHPISSEELLS [Y11G], for which the protein stability index was found to be 2.57. For the variant FSEPSFITESEQTLHPISSEELLS [Y11E], the protein stability index was found to be 2.95. Turning to FSEPSFITESDQTLHPISSEELLS [Y11D], the protein stability index came out at 2.96. The result for FSEPSFITESCQTLHPISSEELLS [Y11C] reads 1.67; that for FSEPSFITESSQTLHPISSEELLS [Y11S], 2.2; that for FSEPSFITESWQTLHPISSEELLS [Y11W], 1.34. In the case of FSEPSFITESKQTLHPISSEELLS [Y11K], the protein stability index stood at 2.81. Take FSEPSFITESTQTLHPISSEELLS [Y11T]: the protein stability index turned out to be 2.3. For FSEPSFITESNQTLHPISSEELLS [Y11N] the value was 2.56; for FSEPSFITESMQTLHPISSEELLS [Y11M], 2.02; for FSEPSFITESPQTLHPISSEELLS [Y11P], 3.21. Consider FSEPSFITESLQTLHPISSEELLS [Y11L], for which the protein stability index is 1.71. Consider FSEPSFITESIQTLHPISSEELLS [Y11I], for which the protein stability index was determined as 2.04. Take FSEPSFITESRQTLHPISSEELLS [Y11R]: the protein stability index was determined as 1.82. For FSEPSFITESFQTLHPISSEELLS [Y11F] the value was 1.73; for FSEPSFITESHQTLHPISSEELLS [Y11H], 2.25; for FSEPSFITESYQTLHPISAEELLS [S19A], 1.7. In the case of FSEPSFITESYQTLHPISFEELLS [S19F], the protein stability index came to 1.88. In the case of FSEPSFITESYQTLHPISWEELLS [S19W], the protein stability index amounted to 2.

Regarding FSEPSFITESYQTLHPISCEELLS [S19C], the protein stability index is 1.78. Turning to FSEPSFITESYQTLHPISDEELLS [S19D], the protein stability index came to 2.31.

With FSEPSFITESYQTLHPISIEELLS [S19I], the protein stability index was 2.13. For the variant FSEPSFITESYQTLHPISYEELLS [S19Y], the protein stability index turned out to be 1.7. In the case of FSEPSFITESYQTLHPISPEELLS [S19P], the protein stability index was determined as 2.11.

Take FSEPSFITESYQTLHPISNEELLS [S19N]: the protein stability index stood at 2.35. On to FSEPSFITESYQTLHPISGEELLS [S19G], for which the protein stability index came to 1.99.

FSEPSFITESYQTLHPISLEELLS [S19L]: the protein stability index came out at 1.81.

As for FSEPSFITESYQTLHPISVEELLS [S19V], the protein stability index came out at 1.84. Consider FSEPSFITESYQTLHPISQEELLS [S19Q], for which the protein stability index was 2.21. On to FSEPSFITESYQTLHPISMEELLS [S19M], for which the protein stability index is 2.19. The result for FSEPSFITESYQTLHPISREELLS [S19R] reads 2.24; that for FSEPSFITESYQTLHPISKEELLS [S19K], 1.72. Regarding FSEPSFITESYQTLHPISTEELLS [S19T], the protein stability index is 2.21. The result for FSEPSFITESYQTLHPISHEELLS [S19H] reads 1.94; that for FSEPSFITESYQTLHPISEEELLS [S19E], 2.46. The result for FSEPSFITESYQTLHWISSEELLS [P16W] reads 1.17; that for FSEPSFITESYQTLHRISSEELLS [P16R], 1.69; that for FSEPSFITESYQTLHTISSEELLS [P16T], 1.9.

For the variant FSEPSFITESYQTLHSISSEELLS [P16S], the protein stability index came to 2.21. The result for FSEPSFITESYQTLHHISSEELLS [P16H] reads 1.81; that for FSEPSFITESYQTLHNISSEELLS [P16N], 1.89; that for FSEPSFITESYQTLHKISSEELLS [P16K], 1.88.

FSEPSFITESYQTLHIISSEELLS [P16I]: the protein stability index amounted to 1.6. Turning to FSEPSFITESYQTLHMISSEELLS [P16M], the protein stability index was found to be 1.47.

As to FSEPSFITESYQTLHDISSEELLS [P16D], the protein stability index worked out at 1.81. As for FSEPSFITESYQTLHQISSEELLS [P16Q], the protein stability index is 2.13. For FSEPSFITESYQTLHCISSEELLS [P16C] the value was 2.07; for FSEPSFITESYQTLHFISSEELLS [P16F], 2.08; for FSEPSFITESYQTLHEISSEELLS [P16E], 1.95. For FSEPSFITESYQTLHGISSEELLS [P16G] the value was 2.19; for FSEPSFITESYQTLHVISSEELLS [P16V], 2.16. As for FSEPSFITESYQTLHYISSEELLS [P16Y], the protein stability index came out at 1.67. Regarding FSEPSFITESYQTLHAISSEELLS [P16A], the protein stability index worked out at 1.68. Turning to FSEPSFITESYQTLHLISSEELLS [P16L], the protein stability index is 3.29. Consider FSEPSFITESYVTLHPISSEELLS [Q12V], for which the protein stability index came to 1.62. As for FSEPSFITESYITLHPISSEELLS [Q12I], the protein stability index stood at 1.58.

As for FSEPSFITESYETLHPISSEELLS [Q12E], the protein stability index came to 2.27. As to FSEPSFITESYNTLHPISSEELLS [Q12N], the protein stability index was determined as 2.26. The result for FSEPSFITESYRTLHPISSEELLS [Q12R] reads 1.92; that for FSEPSFITESYLTLHPISSEELLS [Q12L], 2.45.

With FSEPSFITESYTTLHPISSEELLS [Q12T], the protein stability index was determined as 1.59. On to FSEPSFITESYHTLHPISSEELLS [Q12H], for which the protein stability index came to 2.05.

In the case of FSEPSFITESYDTLHPISSEELLS [Q12D], the protein stability index worked out at 2.52. The result for FSEPSFITESYCTLHPISSEELLS [Q12C] reads 2.24. With FSEPSFITESYGTLHPISSEELLS [Q12G], the protein stability index was found to be 1.84. For FSEPSFITESYKTLHPISSEELLS [Q12K] the value was 1.85. The result for FSEPSFITESYATLHPISSEELLS [Q12A] reads 2.1; that for FSEPSFITESYFTLHPISSEELLS [Q12F], 1.98.

FSEPSFITESYWTLHPISSEELLS [Q12W]: the protein stability index was 2.42.

On to FSEPSFITESYMTLHPISSEELLS [Q12M], for which the protein stability index turned out to be 1.95. For FSEPSFITESYSTLHPISSEELLS [Q12S] the value was 1.88. The result for FSEPSFITESYPTLHPISSEELLS [Q12P] reads 1.91.
